These results are taken from patent publication US20200109212A1 (INTERVET, published 2020).

Assay [1] deals with T1, canine PD-L1 extracellular domain-human IgG1 Fc fusion protein (canine).
T1 construct: Expressed in HEK 293 cells and purified on Protein A; also called canine PD-L1-hFc fusion protein; cPD-L1-hFc
Nature of the assay: cell-based ELISA (CELISA): mAb pre-incubated with cPD-L1-hFc, then added to CHO cells expressing canine PD-1; bound cPD-L1-hFc detected with anti-human Fc-HRP, OD 450-620 nm; blocked partner: canine PD-1. As to the method:
Ligand blockade was confirmed using this assay in conjunction with canine PD-L1/h Fec protein as follows: [0233] 1. Seed cPD-1 CHO cells in 96-well plates and grow the cells to 95-100% confluent. [0234] General guidelines for plating CHO cells, [0235] on day −3: […] (1×10⁵c/mL) [0236] −2: 2×10⁴ c/well ([…]) [0237] −1: 4×10⁴ c/well (4×10⁵ c/mL) [0238] 2. 3-fold dilute anti-cPDL1 mAbs in CHO media, starting at 30 μg/mL, 100 μL/well. Add cPD-L1-hFc to 4 μg/ml in CHO media, 100 μL/well, co-incubate in a dilution plate at 37° C., 5% CO₂ with shaking for 60 min. [0239] 3. Aspirate cell culture media from the cell coated plates, wash the plates 3×PBS+0.05% Tween20 and 1×CHO media. [0240] 4. Add the co-incubated cPD-L1 mAbs/PD-L1 Fc from the dilution plate to the cell coated plate. 100 uL/well. Incubate at 37° C., 5% CO₂ with shaking for 60 min. [0241] 5. Wash the plates 6×PBS+0.05% Tween 20 (using manual wash protocol). [0242] 6. Add Anti-Human Fc-HRP (Calbiochem) (1:2500) in CHO media, 100 ul/well, incubate 30-60 min at 37° C./5% CO₂. [0243] 7. Wash the plates 5×PBS+0.05% Tween20 (using manual wash protocol). [0244] 8. Add 100 μl/well TMB mircowell substrate. Incubate at room temp for 10 minutes. Use one step substrate from Pierce. [0245] 9. Stop with 100 μl/well 1.5M Phosphoric acid. [0246] 10. Measure A450-A620 on the ELISA reader.

The target of assay [2] is T1, canine PD-L1 extracellular domain-human …. Nature of the assay: ELISA, plate coated with canine PD-L1-hFc, two-fold dilutions of mAb, detection with HRP goat anti-mouse IgG, OD 650/490. The procedure:
Hybridoma cells in the cell chamber were expanded to approximately 2.5×10⁷ cells/mL over 3-7 days. Then, 10 mL of cell suspension was harvested from the cell chamber and replaced with fresh media to allow for re-expansion of cells and subsequent harvests. This procedure was repeated as necessary to obtain adequate amounts of mAb from each hybridoma clone. Harvested cell suspensions were centrifuged and the supernatants were filtered through 0.2 micron filter membranes. For antibody purification, each clone's supernatant was purified using a Protein G Sepharose 4 Fast flow 5 mL column (GE Healthcare) by gravity flow. After washing with Tris-EDTA (TE) buffer pH 8.0, bound antibodies were eluted using 0.1 M glycine buffer, pH 2.7, followed by pH neutralization using 1 M Tris, pH 8.0. Antibodies were concentrated and buffer exchanged into phosphate-buffered saline (PBS) using Centriprep YM-10.10 kDa NMWL centrifugal filter units (Millipore). Antibody concentrations were quantified using spectrophotometry. […] The color reaction is allowed to develop for 5-20 minutes at 37° C. prior to measuring absorbance at 650 nm.
On the technique in general: ELISA stands for enzyme-linked immunosorbent assay.

T1 sequence (chain, as listed by the source limits assumed): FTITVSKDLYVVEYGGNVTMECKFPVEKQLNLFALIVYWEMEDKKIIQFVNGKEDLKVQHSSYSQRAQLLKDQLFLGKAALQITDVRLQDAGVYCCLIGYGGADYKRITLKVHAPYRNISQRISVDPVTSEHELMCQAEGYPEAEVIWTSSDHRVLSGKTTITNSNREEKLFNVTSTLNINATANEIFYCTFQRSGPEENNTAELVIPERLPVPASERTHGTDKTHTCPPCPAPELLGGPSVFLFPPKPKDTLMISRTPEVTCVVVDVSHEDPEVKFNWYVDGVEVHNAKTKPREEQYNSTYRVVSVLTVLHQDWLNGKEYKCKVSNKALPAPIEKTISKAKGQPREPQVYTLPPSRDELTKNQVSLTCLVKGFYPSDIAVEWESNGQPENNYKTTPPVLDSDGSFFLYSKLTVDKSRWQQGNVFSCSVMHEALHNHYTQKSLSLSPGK

B1: mouse anti-canine PD-L1 monoclonal antibody 4F9 (antibody, V domains shown)
VH: EVQLVESGGGLVKPGGSLKLSCAASGFTFSSYAMSWVRQTPDKRLEWVATISDGGSYTHYPDNLMGRFTISRDNAKNNLYLQMSHLKSDDTAMYYCARESYDGYYVANWGQGTLVTVSA
VL: DIVLTQSPATLSVNPGDSVSLSCRASQSISNNLHWYQQKSHESPRLLIKYASQSISGIPSRFSGSGSGTDFTLSINSVETEDFGMYFCQQSNSWPQTFGGGTKLEIK
notes: also called mAb 4F9
For the molecule B1, in assay [1], the “IC50 (read off the curve)” value was about 20 nM.

B2: mouse anti-canine PD-L1 monoclonal antibody 5F12 (antibody, V domains shown)
VH: QVQLQQSGPELVKPGASVKISCKASGYTFTDYYMNWVKQRPGQGLEWIGWIFPGSGATYYNERFMGKATLTVDKSSNTAYMLFSSLTSEDSAVYFCLRSDWDVGDFWGQGTTLTVSS
VL: DIVMTQAAFSNPVTLGTSASISCRSSRSLLHTNGITYLSWFLQKPGQSPQLLIYQMSNLASGVPDRFSSSGSGTDFTLRISRVEAEDVGIYYCAQTLGLPRTFGGGTKLEIK
notes: also called mAb 5F12; Anti-PDL-1 5F12
In the case of B2, the binding result in assay [2] is “binds”.
